Measurements as given in the supplement of paper PMC11246515.
± gives the standard deviation of the averaged measurements.

Assay: total protein half-life in vivo (active degradation + dilution); higher = more stable protein
[1] = E. coli NCM3722 delta-clpP delta-lon delta-hslV, growth: N-lim chemostat, doubling time 6 h
[2] = E. coli NCM3722 delta-clpP, growth: N-lim chemostat, doubling time 6 h
[3] = E. coli NCM3722 delta-hslV, growth: N-lim chemostat, doubling time 6 h
[4] = E. coli NCM3722 delta-lon, growth: N-lim chemostat, doubling time 6 h
[5] = E. coli NCM3722 delta-smpB, growth: N-lim chemostat, doubling time 6 h
[6] = wild type E. coli NCM3722, growth: C-lim chemostat, doubling time 3 h
[7] = wild type E. coli NCM3722, growth: C-lim chemostat, doubling time 6 h
[8] = wild type E. coli NCM3722, growth: C-lim chemostat, doubling time 12 h
[9] = wild type E. coli NCM3722, growth: N-lim chemostat, doubling time 6 h
[10] = wild type E. coli NCM3722, growth: N-lim chemostat, doubling time 12 h
[11] = wild type E. coli NCM3722, growth: P-lim chemostat, doubling time 6 h
[12] = wild type E. coli NCM3722, growth: P-lim chemostat, doubling time 12 h

Sequence | total protein half-life in vivo [1] [h] | total protein half-life in vivo [2] [h] | total protein half-life in vivo [3] [h] | total protein half-life in vivo [4] [h] | total protein half-life in vivo [5] [h] | total protein half-life in vivo [6] [h] | total protein half-life in vivo [7] [h] | total protein half-life in vivo [8] [h] | total protein half-life in vivo [9] [h] | total protein half-life in vivo [10] [h] | total protein half-life in vivo [11] [h] | total protein half-life in vivo [12] [h]
MSDRIDRDVINALIAGHFADPFSVLGMHKTTAGLEVRALLPDATDVWVIEPKTGRKLAKLECLDSRGFFSGVIPRRKNFFRYQLAVVWHGQQNLIDDPYRFGPLIQEMDAWLLSEGTHLRPYETLGAHADTMDGVTGTRFSVWAPNARRVSVVGQFNYWDGRRHPMRLRKESGIWELFIPGAHNGQLYKYEMIDANGNLRLKSDPYAFEAQMRPETASLICGLPEKVVQTEERKKANQFDAPISIYEVHLGSWRRHTDNNFWLSYRELADQLVPYAKWMGFTHLELLPINEHPFDGSWGYQPTGLYAPTRRFGTRDDFRYFIDAAHAAGLNVILDWVPGHFPTDDFALAEFDGTNLYEHSDPREGYHQDWNTLIYNYGRREVSNFLVGNALYWIERFGIDALRVDAVASMIYRDYSRKEGEWIPNEFGGRENLEAIEFLRNTNRILGEQVSGAVTMAEESTDFPGVSRPQDMGGLGFWYKWNLGWMHDTLDYMKLDPVYRQYHHDKLTFGILYNYTENFVLPLSHDEVVHGKKSILDRMPGDAWQKFANLRAYYGWMWAFPGKKLLFMGNEFAQGREWNHDASLDWHLLEGGDNWHHGVQRLVRDLNLTYRHHKAMHELDFDPYGFEWLVVDDKERSVLIFVRRDKEGNEIIVASNFTPVPRHDYRFGINQPGKWREILNTDSMHYHGSNAGNGGTVHSDEIASHGRQHSLSLTLPPLATIWLVREAE | 6.52 ± 0.61 | 5.72 ± 0.24 | 6.65 ± 0.44 | 6.1 ± 0.46 | 6.35 ± 0.16 | 2.98 ± 0.15 | 6.06 ± 0.42 | 13.2 ± 0.43 | 5.95 ± 0.2 | 12.2 ± 2.1 | 6.35 ± 0.33 | 12.1 ± 1.9
MSDTNYAVIYDLHSHTTASDGCLTPEALVHRAVEMRVGTLAITDHDTTAAIAPAREEISRSGLALNLIPGVEISTVWENHEIHIVGLNIDITHPLMCEFLAQQTERRNQRAQLIAERLEKAQIPGALEGAQRLAQGGAVTRGHFARFLVECGKASSMADVFKKYLARGKTGYVPPQWCTIEQAIDVIHHSGGKAVLAHPGRYNLSAKWLKRLVAHFAEHHGDAMEVAQCQQSPNERTQLAALARQHHLWASQGSDFHQPCPWIELGRKLWLPAGVEGVWQLWEQPQNTTEREL | 4.2 ± 0.46 | 2.69 ± 0.6 | 2 | 4.05 ± 1.8 | 1.76 ± 0.21 | 1.42 ± 0.78 | 3.06 | 5.96 | 2.24 ± 0.19 | 2.55 ± 0.59 | 2.72 | 4.57 ± 0.45
MSDTTELVDLAVIFPDLEIELKYACADNITGKAIYQQARCLLHKDAITALAKSISIAQLSGLQLVIYDAYRPQQAQAMLWQACPDPQYVVDVTVGSNHSRGTAIDLTLRDEHGNILDMGAGFDEMHERSHAYHPSVPPAAQRNRLLLNAIMTGGGFVGISSEWWHFELPQAASYPLLADQFSCFISPGTQHVS | 5.51 ± 0.24 | 1.76 | 2.69 ± 0.14 | 3.64 ± 0.33 | 1.89 ± 0.17 | 0.884 | 1.97 ± 0.47 | – | 2.72 ± 0.22 | 4.71 ± 0.84 | – | –
MSDVAETLDPLRLPLQGERLIEASAGTGKTFTIAALYLRLLLGLGGSAAFPRPLTVEELLVVTFTEAATAELRGRIRSNIHELRIACLRETTDNPLYERLLEEIDDKAQAAQWLLLAERQMDEAAVFTIHGFCQRMLNLNAFESGMLFEQQLIEDESLLRYQACADFWRRHCYPLPREIAQVVFETWKGPQALLRDINRYLQGEAPVIKAPPPDDETLASRHAQIVARIDTVKQQWRDAVGELDALIESSGIDRRKFNRSNQAKWIDKISAWAEEETNSYQLPESLEKFSQRFLEDRTKAGGETPRHPLFEAIDQLLAEPLSIRDLVITRALAEIRETVAREKRRRGELGFDDMLSRLDSALRSESGEVLAAAIRTRFPVAMIDEFQDTDPQQYRIFRRIWHHQPETALLLIGDPKQAIYAFRGADIFTYMKARSEVHAHYTLDTNWRSAPGMVNSVNKLFSQTDDAFMFREIPFIPVKSAGKNQALRFVFKGETQPAMKMWLMEGESCGVGDYQSTMAQVCAAQIRDWLQAGQRGEALLMNGDDARPVRASDISVLVRSRQEAAQVRDALTLLEIPSVYLSNRDSVFETLEAQEMLWLLQAVMTPERENTLRSALATSMMGLNALDIETLNNDEHAWDVVVEEFDGYRQIWRKRGVMPMLRALMSARNIAENLLATAGGERRLTDILHISELLQEAGTQLESEHALVRWLSQHILEPDSNASSQQMRLESDKHLVQIVTIHKSKGLEYPLVWLPFITNFRVQEQAFYHDRHSFEAVLDLNAAPESVDLAEAERLAEDLRLLYVALTRSVWHCSLGVAPLVRRRGDKKGDTDVHQSALGRLLQKGEPQDAAGLRTCIEALCDDDIAWQTAQTGDNQPWQVNDVSTAELNAKTLQRLPGDNWRVTSYSGLQQRGHGIAQDLMPRLDVDAAGVASVVEEPTLTPHQFPRGASPGTFLHSLFEDLDFTQPVDPNWVREKLELGGFESQWEPVLTEWITAVLQAPLNETGVSLSQLSARNKQVEMEFYLPISEPLIASQLDTLIRQFDPLSAGCPPLEFMQVRGMLKGFIDLVFRHEGRYYLLDYKSNWLGEDSSAYTQQAMAAAMQAHRYDLQYQLYTLALHRYLRHRIADYDYEHHFGGVIYLFLRGVDKEHPQQGIYTTRPNAGLIALMDEMFAGMTLEEA | 5.03 ± 0.26 | 4.28 ± 0.35 | 3.64 ± 0.075 | 3.84 ± 0.3 | 3.72 ± 0.33 | 3.13 ± 0.34 | 5.03 ± 0.71 | 13.2 ± 3.9 | 3.87 ± 0.3 | 5.71 ± 0.92 | 6.9 ± 0.91 | 10.4 ± 0.56
MSDVLRPYRDLFPQIGQRVMIDDSSVVIGDVRLADDVGIWPLVVIRGDVHYVQIGARTNIQDGSMLHVTHKSSYNPDGNPLTIGEDVTVGHKVMLHGCTIGNRVLVGMGSILLDGAIVEDDVMIGAGSLVPQNKRLESGYLYLGSPVKQIRPLSDEEKAGLRYSANNYVKWKDEYLDQGNQTQP [P0A9W9] | – | 5.73 ± 1.7 | 5.34 ± 1.1 | 5.32 ± 0.6 | 4.72 ± 0.17 | 3.04 ± 0.14 | – | 10 ± 2 | 5.36 ± 0.53 | 8.69 ± 0.58 | 6.25 ± 0.13 | 14.3 ± 1.3
MSEAEARPTNFIRQIIDEDLASGKHTTVHTRFPPEPNGYLHIGHAKSICLNFGIAQDYKGQCNLRFDDTNPVKEDIEYVESIKNDVEWLGFHWSGNVRYSSDYFDQLHAYAIELINKGLAYVDELTPEQIREYRGTLTQPGKNSPYRDRSVEENLALFEKMRAGGFEEGKACLRAKIDMASPFIVMRDPVLYRIKFAEHHQTGNKWCIYPMYDFTHCISDALEGITHSLCTLEFQDNRRLYDWVLDNITIPVHPRQYEFSRLNLEYTVMSKRKLNLLVTDKHVEGWDDPRMPTISGLRRRGYTAASIREFCKRIGVTKQDNTIEMASLESCIREDLNENAPRAMAVIDPVKLVIENYQGEGEMVTMPNHPNKPEMGSRQVPFSGEIWIDRADFREEANKQYKRLVLGKEVRLRNAYVIKAERVEKDAEGNITTIFCTYDADTLSKDPADGRKVKGVIHWVSAAHALPVEIRLYDRLFSVPNPGAADDFLSVINPESLVIKQGFAEPSLKDAVAGKAFQFEREGYFCLDSRHSTAEKPVFNRTVGLRDTWAKVGE | 5.89 ± 0.95 | 5.11 ± 0.2 | 4.97 ± 0.059 | 5.31 ± 0.48 | 4.92 ± 0.16 | 3.11 ± 0.31 | 6.39 ± 0.22 | 11.47 ± 0.028 | 5.25 ± 0.2 | 9.02 ± 0.47 | 5.959 ± 0.047 | 12.1 ± 0.73
MSEEKLGQHYLAALNEAFPGVVLDHAWQTKDQLTVTVKVNYLPEVVEFLYYKQGGWLSVLFGNDERKLNGHYAVYYVLSMEKGTKCWITVRVEVDANKPEYPSVTPRVPAAVWGEREVRDMYGLIPVGLPDERRLVLPDDWPDELYPLRKDSMDYRQRPAPTTDAETYEFINELGDKKNNVVPIGPLHVTSDEPGHFRLFVDGENIIDADYRLFYVHRGMEKLAETRMGYNEVTFLSDRVCGICGFAHSTAYTTSVENAMGIQVPERAQMIRAILLEVERLHSHLLNLGLACHFTGFDSGFMQFFRVRETSMKMAEILTGARKTYGLNLIGGIRRDLLKDDMIQTRQLAQQMRREVQELVDVLLSTPNMEQRTVGIGRLDPEIARDFSNVGPMVRASGHARDTRADHPFVGYGLLPMEVHSEQGCDVISRLKVRINEVYTALNMIDYGLDNLPGGPLMVEGFTYIPHRFALGFAEAPRGDDIHWSMTGDNQKLYRWRCRAATYANWPTLRYMLRGNTVSDAPLIIGSLDPCYSCTDRMTVVDVRKKKSKVVPYKELERYSIERKNSPLK | 4.79 | – | 2.89 | 3.68 | 2.74 ± 0.029 | 2.46 | 5.18 | 11.2 ± 0.78 | 3.86 ± 1.7 | – | 5.02 | 8.26 ± 0.97
MSEKSIVQEARDIQLAMELITLGARLQMLESETQLSRGRLIKLYKELRGSPPPKGMLPFSTDWFMTWEQNVHASMFCNAWQFLLKTGLCNGVDAVIKAYRLYLEQCPQAEEGPLLALTRAWTLVRFVESGLLQLSSCNCCGGNFITHAHQPVGSFACSLCQPPSRAVKRRKLSQNPADIIPQLLDEQRVQAV [P0ABY7] | > 8 | 4.44 | – | – | – | 0.252 | 0.52 | – | – | – | – | –
MSEKVVFSQLSRKFIDENDATPAEAQQVVYYSLAIGHHLGVIDCLEAALTCPWDEYLAWIATLEAGSEARRKMEGVPKYGEIVIDINHVPMLANAFDKARAAQTSQQQEWSTMLLSMLHDIHQENAIYLMVRRLRD [P0AEV7] | 3.73 | 2.63 | – | 2.37 ± 0.25 | 1.7 | 2.34 | 3.73 | 6.99 | 2.24 ± 0.23 | 2.34 | 3.21 | 6.49 ± 0.1
MSEKYIVTWDMLQIHARKLASRLMPSEQWKGIIAVSRGGLVPGALLARELGIRHVDTVCISSYDHDNQRELKVLKRAEGDGEGFIVIDDLVDTGGTAVAIREMYPKAHFVTIFAKPAGRPLVDDYVVDIPQDTWIEQPWDMGVVFVPPISGR [P0A9M5] | 4.63 ± 0.2 | 3.87 ± 0.29 | 4.153 ± 0.02 | 4.37 ± 0.52 | 4.28 ± 0.093 | 3 ± 0.046 | 5.55 ± 0.23 | 9.92 ± 0.83 | 4.16 ± 0.19 | 6.73 ± 0.53 | 6.07 ± 0.34 | 13.99 ± 0.054
MSELNEKLATAWEGFTKGDWQNEVNVRDFIQKNYTPYEGDESFLAGATEATTTLWDKVMEGVKLENRTHAPVDFDTAVASTITSHDAGYINKQLEKIVGLQTEAPLKRALIPFGGIKMIEGSCKAYNRELDPMIKKIFTEYRKTHNQGVFDVYTPDILRCRKSGVLTGLPDAYGRGRIIGDYRRVALYGIDYLMKDKLAQFTSLQADLENGVNLEQTIRLREEIAEQHRALGQMKEMAAKYGYDISGPATNAQEAIQWTYFGYLAAVKSQNGAAMSFGRTSTFLDVYIERDLKAGKITEQEAQEMVDHLVMKLRMVRFLRTPEYDELFSGDPIWATESIGGMGLDGRTLVTKNSFRFLNTLYTMGPSPEPNMTILWSEKLPLNFKKFAAKVSIDTSSLQYENDDLMRPDFNNDDYAIACCVSPMIVGKQMQFFGARANLAKTMLYAINGGVDEKLKMQVGPKSEPIKGDVLNYDEVMERMDHFMDWLAKQYITALNIIHYMHDKYSYEASLMALHDRDVIRTMACGIAGLSVAADSLSAIKYAKVKPIRDEDGLAIDFEIEGEYPQFGNNDPRVDDLAVDLVERFMKKIQKLHTYRDAIPTQSVLTITSNVVYGKKTGNTPDGRRAGAPFGPGANPMHGRDQKGAVASLTSVAKLPFAYAKDGISYTFSIVPNALGKDDEVRKTNLAGLMDGYFHHEASIEGGQHLNVNVMNREMLLDAMENPEKYPQLTIRVSGYAVRFNSLTKEQQQDVITRTFTQSM | 4.8 ± 0.094 | 3.3 ± 0.053 | 2.98 ± 0.12 | 3.71 ± 0.17 | 2.58 ± 0.067 | 2 ± 0.078 | 3.04 ± 0.058 | 4.18 ± 0.3 | 3.04 ± 0.21 | 4.452 ± 0.017 | 3.36 ± 0.26 | 6.13 ± 0.27
